The source of these data is article PMC2691818.

In general, Kd refers to a measure of binding affinity in units of concentration. Higher therefore signals weaker binding.

For data set [1], the target named is T1, h-mtTFA1-179 (Homo sapiens, UniProt Q00059 43-221).
T1 sequence: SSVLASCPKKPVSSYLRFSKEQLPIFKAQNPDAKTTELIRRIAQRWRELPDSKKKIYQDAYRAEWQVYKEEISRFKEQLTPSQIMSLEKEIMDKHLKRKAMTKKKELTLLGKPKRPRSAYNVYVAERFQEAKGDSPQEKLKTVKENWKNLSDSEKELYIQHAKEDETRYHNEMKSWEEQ
Description: EMSA. (In EMSA bound probe runs differently from free probe, usually more slowly.)

Data set [2] deals with T2, h-mtTFA full-length (mature) (Homo sapiens, UniProt Q00059 43-246).
T2 sequence: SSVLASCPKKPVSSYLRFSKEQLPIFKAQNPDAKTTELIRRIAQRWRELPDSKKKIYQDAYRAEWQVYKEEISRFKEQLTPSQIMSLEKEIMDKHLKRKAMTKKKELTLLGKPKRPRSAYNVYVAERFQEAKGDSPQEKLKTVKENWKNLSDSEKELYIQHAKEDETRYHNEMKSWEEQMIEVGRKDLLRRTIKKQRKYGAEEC
Description: EMSA.

The target of data set [3] is T3, h-mtTFA box B (mtTFA110-179) (Homo sapiens, UniProt Q00059 152-221).
T3 sequence: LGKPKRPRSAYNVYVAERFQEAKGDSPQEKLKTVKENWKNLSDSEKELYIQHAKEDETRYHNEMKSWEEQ
In words: EMSA.

For data set [4], the target named is T1, h-mtTFA1-179. In words: competition.

B1: 30 bp LSP DNA, 32P-labeled (dsDNA)
DNA 1: GTGTTAGTTGGGGGGTGACTGTTAAAAGTG
DNA 2: CACTTTTAACAGTCACCCCCCAACTAACAC
In the case of B1, the Kd was determined as 12 ± 1.7 nM in data set [1] and 5.4 ± 0.6 nM in data set [2].

B2: 30 bp LSP DNA, unlabeled (dsDNA)
DNA 1: B1 DNA 1
DNA 2: B1 DNA 2
On to B2, for which the binding result in data set [3] is “no binding”.

B3: 30 bp scrambled nonspecific DNA (NS DNA) (dsDNA)
DNA 1: ACTACTAACAGACCGCAACCTAAACACAAC
DNA 2: GTTGTGTTTAGGTTGCGGTCTGTTAGTAGT
In the case of B3, the binding result in data set [4] is recorded as “binds”.
